Assay in all cases: Eu-H2 relaxin saturation binding assay, transfected HEK293T cells
One test concerns the target T1, RXFP1 G41D42-AA (Homo sapiens, UniProt Q9HBX9, D64A/G63A).
T1 construct: transiently transfected human embryonic kidney (HEK) 293T cells expressing full-length RXFP1 and mutants; expressed in transfected cells; host or cells: HEK293T
T1 sequence (Q9HBX9 23-757 G63A/D64A limits assumed): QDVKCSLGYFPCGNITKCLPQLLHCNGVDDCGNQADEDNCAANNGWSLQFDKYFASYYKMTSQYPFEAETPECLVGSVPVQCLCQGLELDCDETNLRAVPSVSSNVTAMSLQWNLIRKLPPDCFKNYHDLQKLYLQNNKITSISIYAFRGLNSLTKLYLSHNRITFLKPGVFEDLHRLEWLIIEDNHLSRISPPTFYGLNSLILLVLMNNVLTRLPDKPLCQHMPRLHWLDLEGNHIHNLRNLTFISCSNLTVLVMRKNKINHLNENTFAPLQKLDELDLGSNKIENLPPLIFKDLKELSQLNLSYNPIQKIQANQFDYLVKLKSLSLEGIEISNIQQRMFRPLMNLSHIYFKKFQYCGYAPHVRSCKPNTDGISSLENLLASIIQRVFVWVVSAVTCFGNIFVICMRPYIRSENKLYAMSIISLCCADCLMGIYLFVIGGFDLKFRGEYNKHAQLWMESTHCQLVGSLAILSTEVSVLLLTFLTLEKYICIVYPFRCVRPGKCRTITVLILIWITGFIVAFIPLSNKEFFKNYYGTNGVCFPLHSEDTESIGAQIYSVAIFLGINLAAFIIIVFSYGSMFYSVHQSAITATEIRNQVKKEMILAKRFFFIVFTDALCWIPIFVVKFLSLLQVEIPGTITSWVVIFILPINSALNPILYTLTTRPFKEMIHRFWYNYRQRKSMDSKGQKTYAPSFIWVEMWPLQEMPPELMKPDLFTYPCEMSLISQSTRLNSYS
To be noted: construct G41D42-AA, maximum H2 concentration 15 nM.

The target in another test is T2, RXFP1 G45W46-AA (Homo sapiens, UniProt Q9HBX9, G67A/W68A).
T2 construct: transiently transfected human embryonic kidney (HEK) 293T cells expressing full-length RXFP1 and mutants; expressed in transfected cells; host or cells: HEK293T
T2 sequence (Q9HBX9 23-757 G67A/W68A limits assumed): T1 sequence (Q9HBX9 23-757 G63A/D64A limits assumed) with A41G, A42D, G45A, W46A
Particulars: construct G45W46-AA, maximum H2 concentration 15 nM.

The target of another test is T3, RXFP1 F54A/Y58A (Homo sapiens, UniProt Q9HBX9, F76A/Y80A).
T3 construct: cells expressing full-length RXFP1 and mutants; expressed in transfected cells; host or cells: HEK293T
T3 sequence (Q9HBX9 23-757 F76A/Y80A limits assumed): T1 sequence (Q9HBX9 23-757 G63A/D64A limits assumed) with A41G, A42D, F54A, Y58A
To be noted: F54A/Y58A RXFP1 versus wild-type RXFP1.

Substitutions are numbered along the chain they refer to. pKd: −log10 of the molar value.

One may read the pKd as −log10 of the Kd, conventionally taken in molar units. Higher therefore signals a small Kd. Turning to “H2 relaxin: two-chain 6-kDa peptide hormone structurally related to insulin; recombinant human gene-2 H2 relaxin provided by Corthera”, the pKd with RXFP1 G41D42-AA and in the test with RXFP1 G45W46-AA was less than 7.70 throughout. In addition, the “loss in H2 relaxin binding” value with RXFP1 F54A/Y58A is “tenfold”.

The values above are taken from article PMC4837482, “The complex binding mode of the peptide hormone H2 relaxin to its receptor RXFP1” (Nature Communications, 2016).
